Laboratory results: the DeepSol protein solubility set

Experiment: soluble on expression in E. coli; label from the status in PepcDB or PDB records
With “MTITDKNRLTGEADPRRTSLYGPPSMDALTERALHLARAGRALLGIVGEPGAGKSTFAEQLRARLEKERPGLAVTVSMDGFHLAQKVIEARGQAADKGTIDTFDADGFVALLRRTRAETGDTENTESTVWWPEFDRDLEDPVAGSIEVAPHHRLVIVDGNFLLSAQEPWRQVKGLLDETWFLDALPEPRRERLTRRYISYGFTPEAARAKTLGVDEDTSALIRSTVSRADLVIGEARESGGVSDC” the “soluble on expression in E. coli” value was “not soluble”.
In the case of “MITLWENRDKWEEDSNLHGLLLTIIKNKALNYLAHLQVRLRAEEEINSHSQRELDLRISTLEACEPDAIFDSEIQHIVQKALKRMPNQSRQIFILSRYQNTPNKKIAEQLGISVKSVEFHITKALKILRTELKDYLVSILF”, the “soluble on expression in E. coli” value was “not soluble”.
With “MEGLLIDYVQPGSIAEELEIEAGDRLVAINGQDLRDIIDFSFYAHDEELALEIVKPSGDHWEAEIERDGDEPLGLVFAPPVPAQCGNKCVFCFVHQLPKGLRRPLYVKDEDYRLSFLYGNYVTLSNIRRGDLDRIVAQRLSPLYISVHATNPALRERLLGRSEILPILDLMRELAAARIVMHSQIVLCPGLNDGVELEKTVRDLAGLHPWVESLAIVPIGLTKHRRGLPALEPVTASYAETFVQNWQPAAERLERELGAPFLFIADEFYIKAGLPFPPLETYGDLPQIENGVGMIPLFLDESERVLKKARKGKPVTVTVVTGESPYRYLAAFLERLSVRTGATFKPVAVHNRLFGESVTVTGLVAGSDIVEELSGRDLGDAVLVPDVMLKEGEGIFLDDLSVDGLGKSLGTRVLVVEATPQGVVDALRRVRSMLEHHHHHH” the “soluble on expression in E. coli” value was “not soluble”.
With “MSLRNKLLTIFDSVDESARIKDAFITQLESSITDAGVLALKLELLDFLTSNLSNYSRTMTISHLLLGFQVSNVISLGPNLATFISSGTSLLDSLISVLEASLNSITKDNIDYAPMRLATAALEIILKLCRNPLTSGLLYSYLIKENFFERIMILDPQVTRFTTWNGSPFDNSTEEKCKNFIESESVGAFLSFLAYRNYWTQYLGLFIHKISFSGTKSEVLTYVNYLISNTMYSVRLFSFLDPLNYGNICEPKETLSIFTNVPLNLEQVTLNKYCSGNIYDFHKMENLMRLIKRVRAESLHSNEGHHHHHH” the “soluble on expression in E. coli” value was “soluble”.
In the case of “MSLATIKDIARRAGVIPSTVNRTLKDNPSISKETKAKVRAAMDELGYVPNSAAQMLATGLTHSLGVVLPPLTDRENISQPFYMEIITAINEEASSNSQVVSIATGATLEELVKQVELMHRQKRADGFIILYSETNDPVKDYLLKEKVPSVVVGAAVDNNDKVTYIDNDNKELGQEAVNFLRAKGHQKIGFVTDDLFGQVGQEHYQGYIEATNEFNLETYPELVFSSRVIDSLIESLQSYQLTALIVKDDLIALRFIHWLNNQGIRIPEDYAIISFNNSIFAEIMYPFLTTYDINIKELGKESVQRLLDLLKNPQTKAQKITIPFRLIERESVSMGEGHHHHHH”, the “soluble on expression in E. coli” value was “soluble”.
With “MGSDKIHHHHHHMPSVKIGIIGAGSAVFSLRLVSDLCKTPGLSGSTVTLMDIDEERLDAILTIAKKYVEEVGADLKFEKTMNLDDVIIDADFVINTAMVGGHTYLEKVRQIGEKYGYYRGIDAQEFNMVSDYYTFSNYNQLKYFVDIARKIEKLSPKAWYLQAANPIFEGTTLVTRTVPIKAVGFCHGHYGVMEIVEKLGLEEEKVDWQVAGVNHGIWLNRFRYNGGNAYPLLDKWIEEKSKDWKPENPFNDQLSPAAIDMYRFYGVMPIGDTVRNSSWRYHRDLETKKKWYGEPWGGADSEIGWKWYQDTLGKVTEITKKVAKFIKENPSVRLSDLGSVLGKDLSEKQFVLEVEKILDPERKSGEQHIPFIDALLNDNKARFVVNIPNKGIIHGIDDDVVVEVPALVDKNGIHPEKIEPPLPDRVVKYYLRPRIMRMEMALEAFLTGDIRIIKELLYRDPRTKSDEQVEKVIEEILALPENEEMRKHYLKR” the “soluble on expression in E. coli” value was “not soluble”.
In the case of “MSLGKDIKVGYNWELSGNVSSYGNSMKNGADLAVKEINAAGGVGGKKLKVLSQDNKSENAEAATVATNLVTKGANVIIGPATSGAAASSTPKVNAAAVPMIAPAATQDNLVYGSDGKTLNQYFFRATFVDNYQGKLLSQYATDNLKAKKVVLFYDNSSDYSKGVAKSFKESYSGKIVDSMTFSAGDTDFQASLTKLKGKEYDAIVMPGYYTETGLIVKQARDLGISKPVLGPDGFDSPKFVQSATPVGASNVYYLTGFTTQGSTKAKAFHDHYVKAYGEEPSMFSALSYDAVYMAAKSAKGAKTSIDIKKALAKLKDFKGVTGKMSIDKNHNVVKSAYVVKLEDGKTSSVNIISAKEGHHHHHH”, the “soluble on expression in E. coli” value was “soluble”.
In the case of “MVRTYSPAFREAAVRMMISHREEYKCSRWAAAVAISEKIGASPNSIYAWFKKSTFETIESDDFDLAYYKERIERLESEIQRLQKTIKFLRTTIIILSNSLHFG”, the “soluble on expression in E. coli” value was “not soluble”.
